From publication PMC3712912, “Dynactin Subunit p150^Glued Is a Neuron-Specific Anti-Catastrophe Factor” (PLoS Biology, 2013)
Residue numbers refer to the chain shown, from its start. Names and notes keep the numbering of the source.

How the values were obtained:
[1] = molecular target: Taxol-stabilized microtubules (polymerized bovine brain tubulin) (bovine) (UniProt Q6B856); test: co-sedimentation; 0.4 µM dimeric constructs with increasing concentrations of Taxol-stabilized microtubules, 37 °C 20 min, centrifuged at 100 k rpm; supernatant and pellet by SDS-PAGE and densitometry
[2] = molecular target: tubulin (soluble tubulin dimers, bovine brain) (bovine) (UniProt Q6B856)
[3] = molecular target: tubulin (soluble tubulin dimers, bovine brain) (bovine) (UniProt Q6B856); test: SEC; polypeptides incubated at the indicated molar ratio with 30 µM tubulin 10 min on ice; Superdex 200 10/300 GL, BRB20 pH 7.1 with 125 mM KCl and 10 mM imidazole (or increasing KCl, Figure 3C), eluted at 4 °C
[4] = molecular target: the molecule itself; test: cross-linking; 0.5 µM dimeric constructs in BRB20 with 125 mM NaCl and 1 mM DTT, 0.5% glutaraldehyde on ice for 2 h; SDS-PAGE and colloidal Coomassie staining
[5] = molecular target: T1, Taxol-stabilized microtubules (polymerized bovine brain tubulin) (bovine, UniProt Q6B856 1-445); test: co-sedimentation; 0.4 µM dimeric constructs with increasing concentrations of Taxol-stabilized microtubules, 37 °C 20 min, centrifuged at 100 k rpm; supernatant and pellet by SDS-PAGE and densitometry; details: both partners purified
[6] = molecular target: T1, Taxol-stabilized microtubules …; test: co-sedimentation; 0.1 µM C-terminal GFP-tagged constructs with increasing concentrations of Taxol-stabilized microtubules, 37 °C 20 min, centrifuged; depletion from the supernatant monitored by fluorimetry; details: both partners purified

Δ5–7 Nt-GCN4 (p150Glued amino acids 1–210 deleted for exons 5–7, GCN4 coiled-coil, linker, C-terminal 6×-His) (from UniProt Q14203-1 1-210) (domain or fragment)
Kd [1]: 470 nM

p150 Nt-GCN4 (human p150Glued amino acids 1–210, GCN4 coiled-coil, linker, C-terminal 6×-His) (from UniProt Q14203-1 1-210) (domain or fragment)
catastrophe frequency, TIRF elongation assay from GMPCPP seeds, 100–200 nM p150 Nt-GCN4 (fold reduction) [2]: 4 fold | microtubule polymerization rate, TIRF elongation assay from GMPCPP seeds, 100–200 nM p150 Nt-GCN4 [2]: 2 fold | stoichiometry N (p150∶tubulin molar ratio) [3]: 1

B1: p150 Nt-GCN4 (human p150Glued amino acids 1–210, GCN4 coiled-coil, linker, C-terminal 6×-His) (domain or fragment)
chain: MAQSKRHVYSRTPSGSRMSAEASARPLRVGSRVEVIGKGHRGTVAYVGATLFATGKWVGVILDEAKGKNDGTVQGRKYFTCDEGHGIFVRQSQIQVFEDGADTTSPETPDSSASKVLKREGTDTTAKTSKLRGLKPKKAPTARKTTTRRPKPTRPASTGVAGASSSLGPSGSASAGELSSSEPSTPAQTPLAAPIIPTPVLTSPGAVPPLVMKQLEDKVEELLSKNYHLENEVARLKKLVGEAAAADPPVAT
notes: p150Glued (DCTN1), human, amino acids 1-210, NM_004082.4; holds the CAP-Gly and basic domains; short linker before the C-terminal 6×-His tag; Dimer through the GCN4 coiled-coil that replaces CC1 of p150Glued; vector pET-29a; also called dimeric p150 Nt-GCN4; p150 Nt-GCN4-His; source: Rosetta E. coli, purified (Ni Sepharose, Mono S, Superdex 200); not shown: His6, C-terminal, kept
binding result [4]: binds | Kd [5]: 290 nM

B2: p150 Nt-GCN4 with C-terminal EGFP-6×-His (domain or fragment)
chain: B1 chain
notes: p150Glued (DCTN1), human, amino acids 1-210, NM_004082.4; short linker, followed by EGFP-6×-His; also called C-terminal GFP-tagged dimeric construct; source: Rosetta E. coli, purified; not shown: EGFP, C-terminal, kept
Kd [6]: 340 nM

B3: Q74P Nt-GCN4 (p150 Nt-GCN4 with the Perry syndrome mutation Q74P) (domain or fragment)
chain: B1 chain with Q74P
notes: p150Glued (DCTN1), human, amino acids 1-210, NM_004082.4, with the disease mutation Q74P; short linker before the C-terminal 6×-His tag; also called Q74P p150 Nt-GCN4; source: Rosetta E. coli, purified immediately before experimentation with a final gel filtration step
binding result [4]: binds

B4: p150 Nt with C-terminal EGFP-6×-His (domain or fragment, human)
chain: MAQSKRHVYSRTPSGSRMSAEASARPLRVGSRVEVIGKGHRGTVAYVGATLFATGKWVGVILDEAKGKNDGTVQGRKYFTCDEGHGIFVRQSQIQVFEDGADTTSPETPDSSASKVLKREGTDTTAKTSKLRGLKPKKAPTARKTTTRRPKPTRPASTGVAGASSSLGPSGSASAGELSSSEPSTPAQTPLAAPIIPTPVLTSPGAVPPLAAAADPPVAT
notes: p150Glued (DCTN1), human, amino acids 1-210, NM_004082.4; short linker, followed by EGFP-6×-His; also called C-terminal GFP-tagged monomeric construct; source: Rosetta E. coli, purified; not shown: EGFP, C-terminal, kept
Kd [6]: 890 nM

B5: p135 Nt-GCN4 (MMRQ, p150Glued amino acids 139–210, GCN4 coiled-coil, linker, C-terminal 6×-His) (domain or fragment)
chain: MMRQAPTARKTTTRRPKPTRPASTGVAGASSSLGPSGSASAGELSSSEPSTPAQTPLAAPIIPTPVLTSPGAVPPLVMKQLEDKVEELLSKNYHLENEVARLKKLVGEAAAADPPVAT
notes: N-terminal MMRQ replicating the endogenous expressed p135 spliceform of p150Glued (DCTN1); p150Glued (DCTN1), human, amino acids 139-210 of p150Glued, NM_004082.4; lacks the CAP-Gly domain and exon 5; short linker before the C-terminal 6×-His tag; Recapitulates the neuronally enriched p135 splice form; also called p135 dimer; source: Rosetta E. coli, purified (Ni Sepharose, Mono S, Superdex 200); …
binding result [4]: binds
